{"source": "patent US11844843", "biological_target": "recombinant human TfR1 (transferrin receptor protein 1) (human) (UniProt P02786)", "sequence (P02786 89-760 limits assumed)": "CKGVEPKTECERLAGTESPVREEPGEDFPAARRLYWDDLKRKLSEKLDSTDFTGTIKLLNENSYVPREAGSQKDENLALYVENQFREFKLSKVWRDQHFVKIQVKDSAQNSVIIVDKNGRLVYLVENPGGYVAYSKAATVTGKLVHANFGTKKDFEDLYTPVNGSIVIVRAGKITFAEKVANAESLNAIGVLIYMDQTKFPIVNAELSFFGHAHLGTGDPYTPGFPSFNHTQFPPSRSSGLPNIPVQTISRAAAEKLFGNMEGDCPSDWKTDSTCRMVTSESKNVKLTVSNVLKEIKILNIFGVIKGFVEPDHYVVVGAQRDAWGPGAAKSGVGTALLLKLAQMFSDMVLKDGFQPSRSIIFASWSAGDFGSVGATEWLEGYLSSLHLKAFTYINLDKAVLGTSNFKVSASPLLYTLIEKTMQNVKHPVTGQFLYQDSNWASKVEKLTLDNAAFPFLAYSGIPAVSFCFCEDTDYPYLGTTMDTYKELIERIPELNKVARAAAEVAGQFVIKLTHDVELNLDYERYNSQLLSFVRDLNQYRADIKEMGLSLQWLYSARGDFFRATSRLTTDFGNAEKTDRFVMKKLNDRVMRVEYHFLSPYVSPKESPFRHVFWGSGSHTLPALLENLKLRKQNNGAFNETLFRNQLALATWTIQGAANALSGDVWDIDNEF", "assay": "Carterra LSA SPR, 25 C; IgG captured, hTfR1 as analyte; 1:1 fit", "note": "pKd: −log10 of the molar value.", "data": [{"substance": "OKT9 mIgG (control anti-TfR1 antibody)", "values": [{"measurement": "pKd", "result": 9.27}, {"measurement": "kon", "result": 774000, "unit": "M⁻¹ s⁻¹"}]}]}
